34 sequences from article PMC4434323 can be followed below.

In series [1] the target is T1, nhr-42 (C33G8.6) (Caenorhabditis elegans) (UniProt O76828).
T1 sequence: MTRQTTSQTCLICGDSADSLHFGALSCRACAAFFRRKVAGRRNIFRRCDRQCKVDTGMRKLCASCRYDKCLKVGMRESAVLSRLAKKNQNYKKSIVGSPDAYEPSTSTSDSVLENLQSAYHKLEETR

Series [2] concerns the target T2, T07C12.11 (T07C12.11) (Caenorhabditis elegans) (UniProt G5EGG9).
T2 sequence: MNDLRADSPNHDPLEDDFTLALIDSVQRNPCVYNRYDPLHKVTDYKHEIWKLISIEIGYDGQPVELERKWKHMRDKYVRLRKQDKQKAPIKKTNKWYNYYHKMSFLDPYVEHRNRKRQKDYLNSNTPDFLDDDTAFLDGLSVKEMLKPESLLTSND

For series [3], the target named is T3, unc-120 (D1081.2) (Caenorhabditis elegans) (UniProt Q18955).
T3 sequence: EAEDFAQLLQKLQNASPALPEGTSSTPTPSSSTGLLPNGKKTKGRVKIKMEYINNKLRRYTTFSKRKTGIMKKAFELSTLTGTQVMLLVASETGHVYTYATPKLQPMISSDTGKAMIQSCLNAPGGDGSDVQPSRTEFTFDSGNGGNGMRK

Series [4] deals with T4, atf-6 (F45E6.2) (Caenorhabditis elegans) (UniProt Q20435).
T4 sequence: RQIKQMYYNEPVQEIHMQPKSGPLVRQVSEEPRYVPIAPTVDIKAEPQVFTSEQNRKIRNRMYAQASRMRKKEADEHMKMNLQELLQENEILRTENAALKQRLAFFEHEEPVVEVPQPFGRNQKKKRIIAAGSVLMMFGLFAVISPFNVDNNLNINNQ

Series [5] addresses T5, C07E3.6 (C07E3.6) (Caenorhabditis elegans) (UniProt Q17792).
T5 sequence: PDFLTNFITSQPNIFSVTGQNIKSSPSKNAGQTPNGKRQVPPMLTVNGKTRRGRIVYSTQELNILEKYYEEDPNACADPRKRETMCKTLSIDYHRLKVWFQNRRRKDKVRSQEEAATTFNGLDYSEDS

Series [6] addresses T6, ceh-18 (ZC64.3) (Caenorhabditis elegans) (UniProt P41934).
T6 sequence: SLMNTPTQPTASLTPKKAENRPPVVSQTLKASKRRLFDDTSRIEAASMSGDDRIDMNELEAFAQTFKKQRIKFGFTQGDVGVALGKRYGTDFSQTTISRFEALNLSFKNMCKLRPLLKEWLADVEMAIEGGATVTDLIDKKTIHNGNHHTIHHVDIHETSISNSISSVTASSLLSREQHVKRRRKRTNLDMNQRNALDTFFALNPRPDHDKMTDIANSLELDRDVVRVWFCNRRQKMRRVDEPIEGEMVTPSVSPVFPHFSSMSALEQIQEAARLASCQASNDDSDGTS

In series [7] the target is T7, ceh-23 (ZK652.5) (Caenorhabditis elegans) (UniProt P34663).
T7 sequence: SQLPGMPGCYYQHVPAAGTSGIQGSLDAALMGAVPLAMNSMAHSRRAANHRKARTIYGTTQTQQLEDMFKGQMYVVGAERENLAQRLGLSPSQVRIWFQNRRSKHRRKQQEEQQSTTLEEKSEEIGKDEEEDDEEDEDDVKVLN

“GACTACGA (double strand) [8-mer GACTACGA]” returned a binding signal (PBM E-score (-0.5 to 0.5)) in series [1] of 0.487.

“CTTGCGCA (double strand) [8-mer CTTGCGCA]” displayed a binding signal (PBM E-score (-0.5 to 0.5)) in series [2] of 0.489.

“GTTACGTA (double strand) [8-mer GTTACGTA]”: in series [2], the binding signal (PBM E-score (-0.5 to 0.5)) turned out to be 0.49.

As for “CCATAAAA (double strand) [8-mer CCATAAAA]”, in series [3], the binding signal (PBM E-score (-0.5 to 0.5)) was determined as 0.459.

In turn, “GCCTTATA (double strand) [8-mer GCCTTATA]” registered a binding signal (PBM E-score (-0.5 to 0.5)) in series [3] of 0.47.

As for “ACTACGAA (double strand) [8-mer ACTACGAA]”, the binding signal (PBM E-score (-0.5 to 0.5)) in series [1] is 0.486.

With “AGACTACG (double strand) [8-mer AGACTACG]”, the binding signal (PBM E-score (-0.5 to 0.5)) in series [1] came out at 0.492.

In turn, “ACTACGAT (double strand) [8-mer ACTACGAT]” registered a binding signal (PBM E-score (-0.5 to 0.5)) in series [1] of 0.482.

The sequence “CCATATAA (double strand) [8-mer CCATATAA]” gave a binding signal (PBM E-score (-0.5 to 0.5)) in series [3] of 0.465.

On to “TATAAGGA (double strand) [8-mer TATAAGGA]”, for which the binding signal (PBM E-score (-0.5 to 0.5)) in series [3] worked out at 0.472.

In the case of “ACGTAAGA (double strand) [8-mer ACGTAAGA]”, the binding signal (PBM E-score (-0.5 to 0.5)) in series [2] stood at 0.486.

As for “CTTGCGTA (double strand) [8-mer CTTGCGTA]”, the binding signal (PBM E-score (-0.5 to 0.5)) in series [2] is 0.487.

On to “CTTACGTA (double strand) [8-mer CTTACGTA]”, for which the binding signal (PBM E-score (-0.5 to 0.5)) is 0.495 in series [2] and 0.456 in series [4].

The sequence “ACCTTATA (double strand) [8-mer ACCTTATA]” came in with a binding signal (PBM E-score (-0.5 to 0.5)) in series [3] of 0.466.

In the case of “ACGTAAGG (double strand) [8-mer ACGTAAGG]”, in series [2], the binding signal (PBM E-score (-0.5 to 0.5)) was 0.488.

“AACGTAAG (double strand) [8-mer AACGTAAG]” registered a binding signal (PBM E-score (-0.5 to 0.5)) in series [2] of 0.486.

In the case of “ACGTAAGC (double strand) [8-mer ACGTAAGC]”, the binding signal (PBM E-score (-0.5 to 0.5)) in series [2] came out at 0.487.

Consider “ATATATGG (double strand) [8-mer ATATATGG]”, for which the binding signal (PBM E-score (-0.5 to 0.5)) in series [3] came out at 0.486.

In series [2], “TACGTAAA (double strand) [8-mer TACGTAAA]” showed a binding signal (PBM E-score (-0.5 to 0.5)) of 0.488.

Consider “CATAATTA (double strand) [8-mer CATAATTA]”, for which the binding signal (PBM E-score (-0.5 to 0.5)) in series [5] turned out to be 0.495; in series [6], 0.483; in series [7], 0.493.

“AAATATGG (double strand) [8-mer AAATATGG]” returned a binding signal (PBM E-score (-0.5 to 0.5)) in series [3] of 0.474.

Take “CATATAAG (double strand) [8-mer CATATAAG]”: the binding signal (PBM E-score (-0.5 to 0.5)) in series [3] was 0.466.

For “CCTTATAA (double strand) [8-mer CCTTATAA]”, in series [3], the binding signal (PBM E-score (-0.5 to 0.5)) turned out to be 0.474.

“CACTACGA (double strand) [8-mer CACTACGA]” returned a binding signal (PBM E-score (-0.5 to 0.5)) in series [1] of 0.485.

The sequence “AGTCACAT (double strand) [8-mer AGTCACAT]” gave a binding signal (PBM E-score (-0.5 to 0.5)) in series [1] of 0.481.

The sequence “ATATAAGG (double strand) [8-mer ATATAAGG]” displayed a binding signal (PBM E-score (-0.5 to 0.5)) in series [3] of 0.478.

“TACCATAA (double strand) [8-mer TACCATAA]” showed a binding signal (PBM E-score (-0.5 to 0.5)) in series [3] of 0.462.

In series [3], “TATATGGA (double strand) [8-mer TATATGGA]” showed a binding signal (PBM E-score (-0.5 to 0.5)) of 0.478.

Sequence “ATACGTAA (double strand) [8-mer ATACGTAA]” displayed a binding signal (PBM E-score (-0.5 to 0.5)) in series [2] of 0.491.

With “CGTAGTCA (double strand) [8-mer CGTAGTCA]”, the binding signal (PBM E-score (-0.5 to 0.5)) in series [1] amounted to 0.48.

In turn, “AAATAAGG (double strand) [8-mer AAATAAGG]” showed a binding signal (PBM E-score (-0.5 to 0.5)) in series [3] of 0.464.

With “CTTACGCA (double strand) [8-mer CTTACGCA]”, the binding signal (PBM E-score (-0.5 to 0.5)) in series [2] was 0.487.

Turning to “CATATATG (double strand) [8-mer CATATATG]”, the binding signal (PBM E-score (-0.5 to 0.5)) in series [3] turned out to be 0.468.

Regarding “AATATTCA (double strand) [8-mer AATATTCA]”, the binding signal (PBM E-score (-0.5 to 0.5)) in series [6] came to 0.477.
